Assay results published in patent US20040087498A1, “Modified factor VII” (Novo Nordisk Health Care AG, priority 1991, published 2004).

Columns and labels:
Format in all cases: cell-based
[1] = target: T1, cell-surface tissue factor on rat vascular smooth muscle cells (Rattus norvegicus, UniProt P42533); assay: Factor Xa generation on rat smooth muscle cells (S-2222); details: 10 nM Factor VIIa
T1 construct: endogenous in cells; host or cells: rat vascular smooth muscle cells
T1 sequence (P42533 29-295): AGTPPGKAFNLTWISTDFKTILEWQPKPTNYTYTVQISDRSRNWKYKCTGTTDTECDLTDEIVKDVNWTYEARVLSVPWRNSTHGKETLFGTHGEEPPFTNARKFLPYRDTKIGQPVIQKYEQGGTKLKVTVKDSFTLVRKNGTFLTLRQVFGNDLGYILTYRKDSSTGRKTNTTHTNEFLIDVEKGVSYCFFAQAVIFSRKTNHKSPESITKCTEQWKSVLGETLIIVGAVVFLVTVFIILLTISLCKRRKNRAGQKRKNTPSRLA
Protocol: Vascular smooth muscle-cells were analyzed for the presence of cell-surface tissue factor by measuring the ability of the cells to stimulate the conversion of Factor X to Factor Xa using a chromogenic substrate that is specific for Factor Xa.
Rat vascular smooth muscle cells (Clowes et al., J. Clin. Invest. 93:644-651 (1994)) were plated into 96-well culture dishes (American Scientific Products, Chicago, Ill.) at 8,000 cells per well in growth media (Table 4).
After a 48 hour incubation at 37° C. the medium was changed to serum free medium (Table 5).
The cells were incubated 72 hours at 37° C. After incubation, either PDGF-BB (10 ng/ml) or 10% fetal calf serum was added to the cells to stimulate tissue factor expression (Taubman et al., J. Clin. Invest, 21:547-552, 1993). A parallel set of cells received neither PDGF nor serum to monitor for intrinsic activity of unstimulated cells. […] The cells were incubated for 2 hours at 37° C. and washed with HEPES buffer (10 mM HEPES, 137 mM NaCl, 4 mM KCl, 5 mM CaCl2, 11 mM glucose, 0.1% BSA). After washing, cells were incubated for 5 min with 50 μl per well of 200 nM plasma-purified human Factor X in a Tris-buffered saline supplemented with 5 mM CaCl2. Twenty-five microliters of 0.5 M EDTA and 25 μl of an 800 μM solution of S-2222 chromogenic substrate (Kabi Pharmacia, Franklin, Ohio) were added to each well. The plates were incubated for 40 min at room temperature, then analyzed at 405 nm using a THERMOMAX microplate reader (Molecular Devices, Menlo Park, Calif.).

[2] = target: T1, cell-surface tissue factor on rat vascular smooth muscle cells; assay: Inhibition of cell-surface chromogenic activity by DEGR-Factor VIIa; details: 10 nM Factor VIIa; cells stimulated with 10% fetal calf serum
Protocol: Rat vascular smooth muscle cells were plated into 96-well culture dishes as described above. The cells were cultured for 72 hours in serum free media as described above and treated with the addition of 10% fetal calf serum for 6 hours to stimulate tissue factor expression. […] The cells were incubated for 2 hours at 37° C., then washed with HEPES buffer. After washing, the cells were incubated for 5 minutes with […] per well of 200 nM Factor X in Tris-buffered saline supplemented with 5 mM CaCl2. Twenty-five microliters of 0.5 M EDTA and 25 μl of S-2222 (800 μM) chromogenic substrate (Kabi Pharmacia) were added to each well. The cells were incubated at room temperature for 40 minutes. Chromogenic activity was analyzed at 405 nm as described above.

[3] = target: T2, cell-surface tissue factor on rat smooth muscle cells (Rattus norvegicus, UniProt P42533); assay: Dose-dependent cell-surface chromogenic activity on rat smooth muscle cells
T2 construct: endogenous in cells; host or cells: rat vascular smooth muscle cells
T2 sequence (P42533 29-295): T1 sequence (P42533 29-295)
Protocol: Rat vascular smooth muscle cells were plated into 96-well culture dishes at 4,000 cells per well in growth medium supplemented with 1% fetal calf serum (as in Table 4 without 10% fetal calf serum). […] The cells were incubated with the Factor VII mixtures for 2 hours at 37° C. After incubation, the cells were washed and incubated with 50 μl of 200 nM Factor X in tris buffered saline for 5 minutes at room temperature. Each well had 25 μl of 0.5 M EDTA and 25 μl of […] S-2222 (Kabi Pharmacia) added to it, and the plates were incubated for 40 minutes at room temperature. Chromogenic activity was analyzed at 405 nm in a microplate reader as described above.

OD405 ([1]; Intrinsic (unstimulated cells)): .247 | OD405 ([1]; cells stimulated with 10% FCS): .342 | OD405 ([1]; cells stimulated with PDGF-BB (10 ng/ml)): .360 | OD405 [2]: .342 | OD405 ([3]; Factor VIIa 1.56 nM alone): .058 | OD405 ([3]; Factor VIIa 6.25 nM alone): .111 | OD405 ([3]; Factor VIIa 25.00 nM alone): .154 | OD405 ([3]; Factor VIIa 100.00 nM alone): .208 | OD405 ([3]; Factor VIIa .10 nM alone): .005 | OD405 ([3]; Factor VIIa .39 nM alone): .025
Substance: Factor VIIa: Recombinant human Factor VIIa, activated two-chain form [reference compound]
